{"source": "paper PMC5983787", "origin": "cited, not measured here", "key": {"Cx43 [1]": {"molecular_target": "Cx43 (UniProt P17302)", "sequence (P17302 2-382)": "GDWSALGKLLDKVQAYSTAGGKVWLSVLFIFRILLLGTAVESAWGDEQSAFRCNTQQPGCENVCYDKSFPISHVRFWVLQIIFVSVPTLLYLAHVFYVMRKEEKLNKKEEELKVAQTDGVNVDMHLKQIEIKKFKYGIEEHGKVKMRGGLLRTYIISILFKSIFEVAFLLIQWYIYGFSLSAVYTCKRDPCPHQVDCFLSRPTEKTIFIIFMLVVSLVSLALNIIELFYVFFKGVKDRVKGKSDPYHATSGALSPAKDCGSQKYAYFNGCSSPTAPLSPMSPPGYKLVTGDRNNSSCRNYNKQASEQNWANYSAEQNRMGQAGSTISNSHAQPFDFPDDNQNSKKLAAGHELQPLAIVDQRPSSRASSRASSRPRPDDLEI"}, "Cx43 [2]": {"molecular_target": "Cx43 (UniProt P17302)", "remark": "listed apart in the source"}}, "note": "Like-named read-outs stand apart in the source and are kept apart here."}
{"substance": "Nedd4 (from UniProt P46934)", "values": [{"measurement": "Kd", "setting": "Cx43 [1]", "value": 1060, "unit": "µM"}, {"measurement": "Kd", "setting": "Cx43 [2]", "value": 585, "unit": "µM"}]}
